The source of these data is the RNAGym collection of RNA variant scans (doi:10.7554/elife.80360).

The chains are these.
B1: HDV Ribozyme (parent)
chain: GGCCGGCAUGGUCCCAGCCUCCUCGCUGGCGCCGGCUGGGCAACAUUCCGAGGGGACCGUCCCCUCGGUAAUGGCGAAUGGGACCCA

Variants of B1 are the subject of this data set. The data set is described as follows: self-cleavage, relative activity (ratio to wild type); higher = more cleavage; co-transcriptional.
For the variant A43U A70C, the self-cleavage was found to be 0.554.
As for A43U A70G, the figure is 1.05.
Consider A43U A70U, for which the self-cleavage is 0.59.
Take U46A C61U: the self-cleavage worked out at 0.61.
For A45G A56C, the self-cleavage turned out to be 1.3.
In the case of C44G C63G, the self-cleavage was 0.441.
C44U A77G: the self-cleavage is 0.923.
On to A43U A83C, for which the self-cleavage was 0.0923.
As for A43U A83U, the self-cleavage worked out at 0.125.
As for C44G C49G, the figure is 0.68; as for A45C G80C, 0.0504.
With C44U C62U, the self-cleavage came to 0.443.
In the case of A43G C48G, the self-cleavage came to 0.719.
As for A43G C48U, the figure is 0.587; as for C44A G82C, 0.0773; as for C44A G82A, 0.153.
Regarding A43U C62A, the self-cleavage is 0.499.
Turning to A43C A78U, the self-cleavage came out at 0.0415.
On to A43U U65G, for which the self-cleavage was determined as 0.302.
In the case of U46A A83C, the self-cleavage was 0.323.
With U46A A83G, the self-cleavage is 0.378.
Next, U46A A83U: 0.277.
With A45U C84A, the self-cleavage was 0.446.
With C44G A70U, the self-cleavage stood at 0.804.
For A43U G55U, the self-cleavage was 0.619.
With A43G U72A, the self-cleavage amounted to 0.453.
With A43G G81U, the self-cleavage is 0.138.
Consider A43U C86U, for which the self-cleavage came to 0.563.
As for A43U C86G, the self-cleavage came out at 0.325.
As for C44U A56U, the figure is 0.748; as for A43G U65G, 0.575.
Turning to C44G G50A, the self-cleavage came out at 0.657.
On to A42U C84G, for which the self-cleavage is 0.198.
Next, A43U C85U: 0.658; A43U C85A: 0.499; C44A G68A: 0.704.
On to C44U C57A, for which the self-cleavage amounted to 0.672.
On to A43G C85G, for which the self-cleavage stood at 0.791.
Regarding A45C A56C, the self-cleavage amounted to 0.712.
Take C44U C66A: the self-cleavage was 0.677.
Regarding C44U C66G, the self-cleavage came out at 0.895.
C44A A78C: the self-cleavage is 0.0811.
As to U46A C58U, the self-cleavage was found to be 0.482.
Next, U46A C58A: 0.57; A45G U60G: 1.31.
As to A42U G80A, the self-cleavage turned out to be 0.16.
Turning to A43C A70C, the self-cleavage was determined as 0.35.
As for C44G G81C, the self-cleavage was 0.306.
C44A C63A: the self-cleavage was 0.882.
In the case of A43U A77C, the self-cleavage was 0.0519.
As to U46A C66U, the self-cleavage was found to be 0.743.
Take U46A A71U: the self-cleavage is 0.95.
Next, U46A A71C: 1.11.
As for A45G C85U, the figure is 1.06; as for A43U G73U, 0.141; as for C44A C85U, 0.727.
Take C44A C85A: the self-cleavage was found to be 0.656.
A45C U72A: the self-cleavage turned out to be 0.89.
Consider A45C U72G, for which the self-cleavage is 1.11.
With C44A G74C, the self-cleavage is 0.237.
With A43G A83U, the self-cleavage was 0.266.
As for A43U C63G, the self-cleavage worked out at 0.394.
For A45U G76U, the self-cleavage came out at 0.652.
On to A45G G50A, for which the self-cleavage was 0.707.
Consider C44G G53C, for which the self-cleavage is 0.733.
As for A43C G76A, the self-cleavage came out at 0.554.
A42U U65G: the self-cleavage was found to be 0.457.
As for A43G C75U, the figure is 0.0573; as for A43G C75G, 0.161; as for A43G C75A, 0.172.
As to A45G A87U, the self-cleavage was 0.911.
For the variant A45G U65C, the self-cleavage was 1.01.
As for A43C G50A, the self-cleavage stood at 0.469.
A45C G73U: the self-cleavage is 0.193.
Regarding A45C G73A, the self-cleavage is 0.528.
For the variant A45G G53A, the self-cleavage was 0.991.
For A42U G81A, the self-cleavage was found to be 0.0378.
A42U G81C: the self-cleavage is 0.0426.
Next, A45C C61G: 0.6; C44G G59A: 0.636; A43C G67C: 0.243.
For C44U A78C, the self-cleavage worked out at 0.113.
Turning to A45G C66G, the self-cleavage was determined as 0.811.
On to A45G C66U, for which the self-cleavage turned out to be 0.92.
As to A45G C66A, the self-cleavage came out at 0.812.
Consider A45G C58A, for which the self-cleavage is 1.18.
Consider C44G A77U, for which the self-cleavage was determined as 0.0978.
Consider A42U U47G, for which the self-cleavage worked out at 0.615.
In the case of A45U C61G, the self-cleavage amounted to 0.815.
With C44U U72C, the self-cleavage worked out at 0.779.
Regarding A45C G68U, the self-cleavage was found to be 0.604.
As for A43C G55A, the figure is 0.511.
As for A42U U79G, the figure is 0.222; as for A42U U79A, 0.145; as for A42U U79C, 0.0216.
Regarding A45C G74A, the self-cleavage amounted to 0.354.
For the variant A45C G74C, the self-cleavage came out at 0.0594.
As for A43G A56C, the figure is 0.587; as for A43G A56U, 0.688; as for A42U G74A, 0.343.
Take A42U G74C: the self-cleavage came out at 0.17.
A43U G68U: the self-cleavage turned out to be 0.299.
A45C U46A: the self-cleavage was 0.499.
C44A C58U: the self-cleavage was 0.689.
For A45G C57G, the self-cleavage was determined as 1.01.
Turning to A45U G81A, the self-cleavage was 0.259.
Next, C44A A56G: 0.875.
Turning to A45C A83U, the self-cleavage stood at 0.356.
Regarding A45C A83C, the self-cleavage was determined as 0.0615.
As for A43G G52A, the figure is 0.577; as for A43G G52C, 0.796; as for A45U C85G, 0.847.
Turning to C44U G80A, the self-cleavage was 0.125.
Turning to C44U G80U, the self-cleavage amounted to 0.148.
Consider C44G G67C, for which the self-cleavage was found to be 0.755.
Next, A43C C58A: 0.394; A43G A78G: 0.119.
Next, C44U C63U: 0.806.
Next, C44U C84U: 0.516; A43G C66U: 0.672; A43G C66G: 0.404.
On to A42U C86G, for which the self-cleavage stood at 0.519.
Next, A42U C86A: 0.492.
As for C44A U65C, the figure is 0.804; as for C44A U65G, 0.85.
A45C C58A: the self-cleavage was found to be 0.519.
Consider A45C C58U, for which the self-cleavage turned out to be 0.831.
For the variant C44U A45U, the self-cleavage came out at 0.787.
Regarding A43C U47A, the self-cleavage amounted to 0.506.
C44U C48A: the self-cleavage is 0.779.
As to A43C A77U, the self-cleavage turned out to be 0.
For A43C A77C, the self-cleavage was determined as 0.0923.
With A45C C48G, the self-cleavage amounted to 0.369.
A45G U47G: the self-cleavage came out at 0.767.
As to A43C C49G, the self-cleavage was determined as 0.287.
Consider A45U U60G, for which the self-cleavage was determined as 0.643.
For A43G G82U, the self-cleavage was 0.189.
With A43G G82A, the self-cleavage stood at 0.138.
As for A45G C62A, the self-cleavage is 0.975.
A43G A70G: the self-cleavage is 0.914.
With C44A A87G, the self-cleavage was 0.649.
For A45C C64G, the self-cleavage is 0.649.
Regarding C44A U60G, the self-cleavage is 0.554.
As to C44A U60A, the self-cleavage turned out to be 0.867.
For the variant C44U G76A, the self-cleavage was found to be 0.87.
C44U G76C: the self-cleavage was found to be 0.725.
Next, A45U G68A: 0.712.
For the variant A43C A87U, the self-cleavage was found to be 0.59.
Consider C44G C66G, for which the self-cleavage is 0.554.
Regarding A43G C57A, the self-cleavage stood at 0.628.
As for A43G C57G, the figure is 0.356; as for A43G C57U, 0.974; as for C44G G80U, 0.0966.
As for A45U G54A, the figure is 0.939; as for A45G A83G, 0.95; as for A45C A77G, 0.534.
Next, A45C A77U: 0.142.
Consider A42U C85A, for which the self-cleavage was determined as 0.415.
As for C44U A87C, the figure is 0.618; as for A43G G74A, 0.724.
Next, C44G U79A: 0.388; U46A C63U: 0.763.
Take U46A C63A: the self-cleavage came to 0.499.
In the case of A42U U60C, the self-cleavage stood at 0.554.
Consider A45C G76U, for which the self-cleavage is 1.01.
With C44A G55U, the self-cleavage was 0.698.
Turning to A45U C58A, the self-cleavage was determined as 0.539.
